Here are results for one molecule from PMC6662825.

The experiment deals with Trx-NVL^167–216-(GS)3-eYFP (human) (UniProt O15381). Kind of experiment: MST; 50 nM Trx-NVL^167–216-(GS)3-eYFP with a 1:1 dilution series of unlabeled MTR4 KOW; 50 mM Hepes/NaOH pH 7.5, 150 mM NaCl, 5% glycerol, 0.5 mM TCEP; MST power 20%, LED power 20%; triplicates.
Chain of Trx-NVL^167–216-(GS)3-eYFP (human) (O15381 167-216): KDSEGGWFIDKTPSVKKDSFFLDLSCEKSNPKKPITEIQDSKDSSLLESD

B1: MTR4-KOW (domain or fragment)
chain: HKPKYCLPFLQPGRLVKVKNEGDDFGWGVVVNFSKKSNVKPNSGELDPLYVVEVLLRCSKESLKNSATEAAKPAKPDEKGEMQVVPVLVHLLSAISSVRLYIPKDLRPVDNRQSVLKSIQEVQKRFPDGIPLLDPIDDMGIQD
For orientation: Kd means the constant that tells how readily two partners part at equilibrium. The molecule B1 had a Kd of 1000 nM.
